Experimental data taken from patent EP1841452B1.

Target: mouse TNFR1 on L929 cells (mouse)
Assay: cell-based or functional assay

Substance	ND50, modified L929 cytotoxicity assay without TNF-α (agonism)
anti-TNFR1 antibody AF-425-PB (R&D Systems)	100 pM
anti-TNFR1 antibody MAB430 (R&D Systems)	10000 pM
